Target: T1, GlnK (Escherichia coli (strain …, UniProt P0AC55,P0AC55,P0AC55))
T1 chain 1: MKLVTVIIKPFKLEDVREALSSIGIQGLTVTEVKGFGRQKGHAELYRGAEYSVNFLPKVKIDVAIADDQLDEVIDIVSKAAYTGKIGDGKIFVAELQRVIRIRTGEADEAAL
T1 chain 2: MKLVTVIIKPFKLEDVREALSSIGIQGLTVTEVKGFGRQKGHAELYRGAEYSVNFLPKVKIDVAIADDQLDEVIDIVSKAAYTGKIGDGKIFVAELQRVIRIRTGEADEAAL
T1 chain 3: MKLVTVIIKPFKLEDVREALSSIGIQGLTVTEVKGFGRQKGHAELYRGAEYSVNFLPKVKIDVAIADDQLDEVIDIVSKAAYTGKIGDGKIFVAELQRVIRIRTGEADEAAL
Experiment: BLI (His-PII trimer on sensor), ADP

B1: UmpH (protein)
chain: MTIKNVICDIDGVLMHDNVAVPGAAEFLHGIMDKGLPLVLLTNYPSQTGQDLANRFATAGVDVPDSVFYTSAMATADFLRRQEGKKAYVVGEGALIHELYKAGFTITDVNPDFVIVGETRSYNWDMMHKAAYFVANGARFIATNPDTHGRGFYPACGALCAGIEKISGRKPFYVGKPSPWIIRAALNKMQAHSEETVIVGDNLRTDILAGFQAGLETILVLSGVSSLDDIDSMPFRPSWIYPSVAEIDVI
  Kd: 7.8 nM
